Measured values: article PMC4978918

Assays:
Test in all cases: co-IP; anti-V5 IP of Scc4-3V5 or scc4-RID-3V5 from yeast extracts, cells at midlog phase in YPD at 23°, IPH50 buffer (50 mM Tris pH 8.0, 50 mM NaCl, 5 mM EDTA, 0.5% NP-40), 4°; blot with anti-Myc (Scc2) or anti-HA (Smc1)
[1] = biological target: scc4-L305ins-3V5 (S. cerevisiae) (UniProt P40090)
[2] = biological target: scc4-L490ins-3V5 (S. cerevisiae) (UniProt P40090)
[3] = biological target: scc4-S505ins-3V5 (S. cerevisiae) (UniProt P40090)
[4] = biological target: scc4-V485ins-3V5 (S. cerevisiae) (UniProt P40090)

Measured: co-precipitation, percent of the wild-type level

B1: Scc2-12Myc (natural protein)
chain: MSYPGKDKNIPGRIIEALEDLPLSYLVPKDGLAALVNAPMRVSLPFDKTIFTSADDGRDVNINVLGTANSTTSSIKNEAEKERLVFKRPSNFTSSANSVDYVPTNFLEGLSPLAQSVLSTHKGLNDSINIEKKSEIVSRPEAKHKLESVTSNAGNLSFNDNSSNKKTKTSTGVTMTQANLAEQYLNDLKNILDIVGFDQNSAEIGNIEYWLQLPNKKFVLTTNCLTKLQMTIKNITDNPQLSNSIEITWLLRLLDVMVCNIKFSKSSLKMGLDDSMLRYIALLSTIVLFNIFLLGKNDSNLHRESYIMEPVNFLSDLIESLKILTIEYGSLKIEFDTFQEALELLPKYIRNGPFLDDNVTAKLVYIFSDLLMNNDIEATTNIQFQSFWDNVKRISSDILVSLFGSFDQQRGFIIEELLSHIEKLPTKRIQKKLRKVGNQNIYITDFTFTLMSMLENINCYSFCNQMKDIAPENIDLLKNEYKKQEEFLFNIVEHINDTILERFFKNPSALRYVIDNFVQDLLLLISSPQWPVTEKILSSLLKRLLSVYSPSMQVSANIETICLQLIGNIGSTIFDIKCSTRDHEDNNLIKMINYPETLPHFFKSFEECIAYNETIKCRRSATRFLWNLRLGTILILEEYTKDAKEQIITVDNELKKILEQIKDGGLGPELENREADFSTIKLDYFSILHAFELLNLYDPYLKLILSLLAKDKIKLRSTAIKCLSMLASKDKVILSNPMVKETIHRRLNDSSASVKDAILDLVSINSSYFEFYQQINNNYNDDSIMVRKHVLRINEKMYDETNDIVTKVYVIARILMKIEDEEDNIIDMARLILLNRWILKVHEVLDQPEKLKEISSSVLLVMSRVAIMNEKCSQLFDLFLNFYLLNKEAHSKEAYDKITHVLTILTDFLVQKIVELNSDDTNEKNSIVDKQNFLNLLAKFADSTVSFLTKDHITALYPYMVSDEKSDFHYYILQVFRCTFEKLANFKQKFLYDLETTLLSRLPKMNVREIDEAMPLIWSVATHRHDTARVAKACSSCLSHLHPYINKANNEEAAIVVDGKLQRLIYLSTGFARFCFPKPSNDKIAFLQEGETLYEHITKCLLVLSKDKITHVIRRVAVKNLTKLCGNHPKLFNSRHVLHLLDKEFQSDQLDIKLVILESLYDLFLLEERKSVRNTGVNSTLSSNSILKKKLLKTNRVEFANDGVCSALATRFLDNILQLCLLRDLKNSLVAIRLLKLILKFGYTNPSHSIPTVIALFASTSQYIRHVAYELLEDLFEKYETLVFSSLSRGVTKAIHYSIHTDEKYYYKHDHFLSLLEKLCGTGKKNGPKFFKVLKRIMQSYLDDITDLTSTNSSVQKSIFVLCTNISNITFVSQYDLVSLLKTIDLTTDRLKEVIMDEIGDNVSSLSVSEEKLSGIILIQLSLQDLGTYLLHLYGLRDDVLLLDIVEESELKNKQLPAKKPDISKFSAQLENIEQYSSNGKLLTYFRKHVKDT
50%: [1] | [2] | [3] | [4]
